Test results: PMC5053900 (The FEBS journal, 2016)
Changes are numbered by the printed parent chain. Names and notes keep the numbering of the source. Where two headings read alike, the source gives them in different places.

B1: UbaA, E1-like SAMP-activating enzyme of Haloferax volcanii, purified wild type (enzyme, UniProt D4GSF3 1-270, looked up)
chain: MTLSLDATQLDRYSRHIIMDEVGPEGQGRLLSSRVVVVGAGGLGAPAIQYLAAVGVGELVVVDDDVVERSNLQRQVVHCDDDVGTPKAESAAAFVRGLNPDVSVEPVEARVDKSNVHEVVAGSDVVVDASDNFPTRYLLNDVCRFEGIPLVHGAIYKFEGQATTLVPDGPCYRCLFPEAPEPGTVPDCATTGVLGVLPGTVGCIQATEAMKLLLDEGEALDGRLLFYDAMDMTFETVPYRTNPDCPVCGEGGVDSIEDIDYVESCAISLD
B2: UbaA K87R, purified (enzyme, Haloferax volcanii, UniProt D4GSF3 1-270, looked up)
chain: B1 chain with K87R
B3: UbaA C188A, purified (enzyme, Haloferax volcanii, UniProt D4GSF3 1-270, looked up)
chain: B1 chain with C188A
B4: UbaA D131N, purified (enzyme, Haloferax volcanii, UniProt D4GSF3 1-270, looked up)
chain: B1 chain with D131N
B5: SAMP2, small ubiquitin-like archaeal modifier protein 2, purified (natural protein, Haloferax volcanii, UniProt D4GZE7 1-66, looked up)
chain: MNVTVEVVGEETSEVAVDDDGTYADLVRAVDLSPHEVTVLVDGRPVPEDQSVEVDRVKVLRLIKGG
B6: SAMP1, small ubiquitin-like archaeal modifier protein 1, purified (natural protein, Haloferax volcanii, UniProt D4GUF6 1-87, looked up)
chain: MEWKLFADLAEVAGSRTVRVDVDGDATVGDALDALVGAHPALESRVFGDDGELYDHINVLRNGEAAALGEATAAGDELALFPPVSGG

Tests used:
SEC = molecular target: the molecule itself; test: SEC
[1] = molecular target: B1; test: ITC
[2] = molecular target: B1; test: ITC; remark: listed apart in the source
[3] = molecular target: B1; test: ITC; remark: listed apart in the source
[4] = molecular target: B1; test: ITC; remark: listed apart in the source

B1 was tested, and the “stoichiometry N” value (SEC) was 2.

With B2 the “stoichiometry N” value (SEC) was 2.

With B3 the “stoichiometry N” value (SEC) was 2.

In the case of B4, the “stoichiometry N” value (SEC) is reported as 2.

With B5 the Ka [1] was 230000 M⁻¹, the Kd [1] was 4.3 µM and the dH [1] was -16.5 kcal/mol. The “stoichiometry N” value [1] was 0.99.

For B6, the Ka [1] was 850000 M⁻¹, the Kd [1] was 1.2 µM and the dH [1] was 2.92 kcal/mol. For the same binder, the “stoichiometry N” value [1] was 0.98, the Ka [2] was 590000 M⁻¹ and the Kd [2] was 1.7 µM. For the same binder, the dH [2] was 8.65 kcal/mol, the “stoichiometry N” value [2] was 0.95 and the Ka [3] was 250000 M⁻¹. For the same binder, the Kd [3] was 4.1 µM, the dH [3] was 3.82 kcal/mol and the “stoichiometry N” value [3] was 1.02. The Ka [4] was 230000 M⁻¹, the Kd [4] was 4.4 µM and the dH [4] was 4.95 kcal/mol. The “stoichiometry N” value [4] was 0.95.
